The values below come from patent publication KR20190006154A.

The assay has as its target FMDV O1 Manisa (Foot and Mouth Disease Virus serotype O). In words: indirect ELISA, inactivated FMDV coated, hybridoma supernatant. A general note: In an ELISA, binding on a coated surface is turned into a signal by an enzyme label.

B1: 4B14 (antibody, V domains shown)
VH: EVQLQQSGPEVVKPGASVKMSCKASGYSFTGYYMNWVKQSHVKSLEWIGRINPDNGATNYNQNVKDKASLTVDKSSNTAYMELHSLTSEDSAVYYCARWLLSPYVMDYWGQGTSVTVSS
VL: DIVLTQSPASLAVSLGQRATISYRASKSVSTSGYSYMHWNQQKPGQPPRLLIYLVSNLESGVPARFSGSGSGTDFTLNIHPVEEEDAATYYCQHIRELTRSEGGPSW
On to B1, for which the O.D (450nm) in ELISA screening plate was 2.31 O.D (450nm).

B2: 7F32 (antibody, V domains shown)
VH: EVQLVESGGDLVKPGGSLKLSCAASGFTFSNYGMSWGRQTPDKRLEWVATISSGGSYTYYPDSLKGRFTISRDNAKNTLYLQMTSLKSEDTAMYYCSSPYYDSSYDYSLDYWGQGTSVTVSS
VL: DIVLTQSPASLAVSLGQRATISYRASKSVSTSGYSYMHWNQQKPGQPPRLLIYLVSNLESGVPARFSGSGSGTDFTLNIHPVEEEDAATYYCQHIRELTRSEGGPSW
On to B2, for which the O.D (450nm) in ELISA screening plate was 0.91 O.D (450nm).
